Experimental data reported in the RNAGym collection of RNA variant scans (doi:10.1073/pnas.2313332121).

B1: TPR t1 (parent)
chain: GACCAAUCUGCCCUCAGAGCUCGAGAACAUCUUCGGAUGCAGAGGAGGCAGGCUUCGGUGGCGCGAUAGCGCCAACGUCCUCAACCUCCAAUGCAUCCCACCACAUGAUGAUGCCUGAAGAGCCUUGGUUUUUUG

Variants of: B1
Assay: polymerase ribozyme fitness, log enrichment relative to wild type (log ratio); higher = more active; in vitro selection for triplet polymerase activity
Method in brief: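 Fitness is a logarithmic measure of how a genotype enriched relative to the wild type, with replicate averages weighted by inverse variance. The logarithm uses base 2, and enrichment came from Illumina sequencing of input and output libraries. Those libraries were PCR-built, transcribed mutants of each subunit of a heterodimeric triplet polymerase ribozyme, passed through one triplicate in vitro selection round that included frozen incubation at −7 °C, gel excision of extended constructs and streptavidin-bead capture. Genotypes were kept only if they had ≥10 input reads and ≥1 read per output.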

Variant | polymerase ribozyme fitness (log ratio)
G45U C53U U130A | -1.99
G45A G63C | -0.827
G44U C70A U129A U131A | -3.71
G45U A84C U96A G110A U131A | -3.98
G45C U133G G135U | -1.52
G45A C70G C85A | -4.9
G44U A91C G93A | -1.99
G44U C94A | -2.53
G44U C94G | -3.91
G45A G60A G110C | -4.86
G45U G48A U132C | -1.5
G45U A83C G93U U116C C123G | -4.31
G45A A46C C49U C101A U112G U131A | -5.02
G44U C123A | 0.184
G45C G48C C53G G107A A121G | -5.84
G45A A108G | -2.36
G45U A46G G69A U106A | -3.18
G45A C53U | -1.11
G45A A74G C115G G127C | -4.14
G45U C73A A95U | -1.21
G44U C79G A91C C115A | -5.13
G45C G58A | -0.146
G45U C49A C88U A105U G128A | -4.94
G45A C102U G120C | -1.47

Variant | polymerase ribozyme fitness (log ratio)
G44C G61C U78C C98A G113U | -7.8
G44U G52A | -0.705
G45U A46U C56A G93A | -4
G45A A50G G93C | -1.62
G45A G52C C72A C123G | 0.812
G45A A74U U112G | -0.353
G45U G47A G63U C82G G93U G117C A119G | -7.49
G45A C76U C86G | -3.23
G45U C115A G128U | -4.73
G44U A84U A118G | -2.17
G44U C70A C73U | -2.95
G45A C73A U133G | -0.489
G44C G51U G60U C123U | -2.6
G44C G71A | -1.25
G44C G61C A100C U106A | -4.28
G45A G48A G51U A83U U126G | -5.24
G45A A50C | -1.09
G45C G60C C79A | -1.42
G45U C56A U59G C101G G120A G128A G135A | -3.75
G45A C89U | -1.44
G45A C70A C115A | -0.928
G45C C115U | -3.17
G44C C94U | -1.02
G45C G58A A121C | 0.614

Variant | polymerase ribozyme fitness (log ratio)
G45U C56U U81G C101G C114A | -5.46
G44C G63A | 0.0487
G45U C72G C89G | -3.39
G45A G93U | -1.91
G45A G93C | -1.29
G44U G71C G93A | -3.04
G45C C56G C89A | -2.69
G44U C62A A90G | -2.16
G44C G47C C49U C97A C123U | -6.09
G45A C70U | -1.29
G44U G71C | -2.58
G44U G48A C86U U92A | -4.3
G44U C49A G110A | -3.22
G45A U112A | 1.41
G45C G57C U59A G120A | -0.07
G45A U59A C64U G128U | -2.82
G44C G47C G63C C89U U132A | -4.25
G44U G63C C72U A111U | -5.44
G45A U87C C97A | -3.81
G45A C101A | -1.74
G45C G128C | -4.18
G44U G93U G117A | -3.24
G45A U87G | -0.388
G44U G61A C99U | -4.01

Variant | polymerase ribozyme fitness (log ratio)
G44U C56U U87C | -1.16
G45U C98A | -6.01
G45A A95C A111U | -3.67
G45A G63C C82U | -0.994
G44U G77A C101A | -1.37
G44U G117U | -3.54
G45A G51A C79A | -3.77
G44C C88G | -2.18
G45C C82A C101U | -2.68
G45C U55G G69U G107A | -5.92
G45U C49A | -0.895
G44U U92A | -3.67
G44U C98U U125G G127U | -3.43
G45A G69U U78C U112C U129A | 0.415
G45A C49A | -0.473
G44U G120U | -0.505
G45C C49U C56G A121C | -0.675
G44U C62A C101G | -4.35
G45U C72G A91C | -2.3
G45A U54A G61C | -0.932
G45A A50G G52A G61U U131G | -3.62
G44U G69U | -0.207
G44U G63A U78A G117C | -6.55
G44U U78C A108G | -4.95

Variant | polymerase ribozyme fitness (log ratio)
G45A A46G A50C C89A | -3.72
G45C A84G U87G | -3.02
G44U C72G | -1.28
G45U C73U C98U A111G U125A | -6.59
G45U A100C A111G A121G U125C | -1.08
G45U C72U U78G C101A G122A | -2.81
G45A G61U U130G | -0.472
G44U C56A C102U | -3.03
G45A A46U | -1.72
G44U C82U C89A C124A | 1.91
G44U A84C A91C | -1.65
G45A G61C U81G | -6.11
G45C C102G A121U U126G G128U | -4.67
G45U G51U A118G G120U | -7.09
G44U C70U | -2.01
G45A A103C U106A C115G | -5.5
G45C A50U | -2.42
G44C G52A G127A | -3.02
G45A C79A G113U A118G | -7.04
G44U A46U C70U | -3.55
G45U C72G | -1.73
G45A A111C | -0.541
G45C G65U G71A A74G | -5.88
G45U C53U | -2.81

Variant | polymerase ribozyme fitness (log ratio)
G45C U109C | -4.66
G45C A66U C79G C82U | -3.83
G45U C97U U112A | -0.0204
G44U U54A U55C | -2.01
G44U G52C C82G G113A C124U | -3.3
G45U C64U U96A G110A G120C | -4.67
G45U A105U | -3.16
G44U G61U A111U | -3.66
G45C G71A C73U C86A U109A | -6.99
G44U C73U G113C A121G G128A | -4.53
G45C G48C | -2.05
G45U C49A U59C C97G | -5.1
G45C C56A C98U | -3.15
G45C C49G U59G C89U | -3.44
G44C C98U | -2.37
G45A G63A U67C C82U A84G U96A C98G C124U | -8.07
G45A G51U G58U A74U C80A | -0.751
G44C G71U A108U G110C U125A | -6.18
G45U A46C A91C | -2.71
G44C G61C | -3.07
G44C G69A U116C C123U | -5.92
G45A C115G G127C | -4.31
G44C C114A | -2.01
G44C G61A A95U G110A | -1.72

Variant | polymerase ribozyme fitness (log ratio)
G45A G58A A111C A118C | -0.455
G44U A95C | -2.44
G45U G52A C115U G135U | -4.62
G45C C99U | -4.05
G44C U55C | -1.02
G45U C70U C85U C89A C104U | -5.61
G45A U106A A111G | -1.55
G44U G71A U130G | -3.31
G44U C73G C102U C124G | -1.03
G44U G110C | -3.92
G45U C72U C88U G113U U129A | -5.57
G45U C115U | -2.6
G45U C72A U81C A84C C104U G110U U131C | -4.32
G44U G45U G60C C101U A121G U131C | -0.695
G44C G61U C102A | -2.81
G44U C97G G113A | -5.15
G45U C62U G107U U116C | -5.58
G45C G51U G71C | -4.44
G45C A100G G120C | -3.59
G44C U54A C82U C114G | -4.01
G45A C72A G117U | -2.7
G44U C98U | -2.19
G44C G57U G63U | -2.08
